According to patent US6558660B2, “Method for regulating IL-10 with IL-9, and applications thereof” (Ludwig Institute for Cancer Research, priority 2000, dated 2003):

Columns and labels:
[1] = test system: P. aeruginosa (serotype 10); conditions: cited from earlier work
[2] = test system: P. aeruginosa (serotype 10); assay: live sepsis model, survival after lethal P. aeruginosa challenge; type: in vivo, mice
Description: This model was used in these experiments. To elaborate, hybrid mice (BALB/c Cr×DBA/2Cr) F1 (CD2 F1) of both sexes, ranging in age from 2-4 months were used. Mice were injected, intravenously, with 10^10 cells of P. aeruginosa (serotype 10), as described by, e.g., Campanile, et al, Cell. Immunol. 128:250 (1990); Campanile, et al, Cell. Immunol. 147:341 (1993); Campanile, et al, Eur. J. Pharmacol. 307:191 (1996). The microorganism was cultured in tryptic soy broth using standard conditions, and incubated at 37° C. for 18-24 hours under constant aeration. After the overnight culturing, the microorganisms were centrifuged, forming a soft pellet which was then resuspended in phosphate buffered saline. The dose of microorganisms referred to supra was then administered. This inoculum size is known to be lethal in more than 90% of test animal populations.
The interleukins and PBS were all administered intraperitoneally. Pentoxifylline was also administered intraperitoneally.
The experiments described supra were repeated, using a variety of doses, and both prophylactic and post-challenge administration.
To test this, mice received pentoxifylline at a dose of 30 mg/kg of body weight 1 hour before challenge with bacteria. The animals received a dose of murine IL-9 (4 μg) three hours post infection.

[3] = LPS challenge (LD90), survival; type: in vivo, mice; conditions: 850 μg LPS i.p.; IL-9 24 and 1 hour prior to challenge
Description: (§1) In these experiments, mice were injected, intraperitoneally, with 850 μg of LPS, which had been determined previously to constitute an LD90. All animals received doses of IL-9 as described supra, 24 and 1 hour prior to challenge. Sera were analyzed 2, 4, 6, 8, and 24 hours following challenge, using either a standard bioassay for TNF-α (cytotoxicity to TNF-α sensitive WEH1 164 cells), or via an immunossay (IL-12p40 and IFN-γ).

TNF-α [4] = assay: serum TNF-α bioassay (cytotoxicity to WEH1 164 cells) after P. aeruginosa challenge; type: in vivo; conditions: P. aeruginosa treated mice; IL-9 24 and 1 hour prior to challenge
Text: (§2) It has been observed, previously, that there is a strong association between development of fatal septic shock and production of TNF-α. See, e.g., the Campanile papers, cited supra. In addition, IL-12 and IFN-γ are pro-inflammatory cytokines thought to have a pathogenetic role in both septic shock and endotoxemia. See D'Andrea, et al, J. Exp. Med. 178:1041 (1993). Murphy, et al, J. Exp. Med. 180:223 (1994); Kubin, et al, J. Exp. Med. 180:211 (1994). In view of the results secured in examples 1 & 2, studies were undertaken to measure serum levels of TNF-α, IL-12 p40, and IFN-γ, in subject animals challenged with P. aeruginosa in the manner described supra, or lipopolysaccharide antigen (“LPS” hereafter), that were also treated with IL-9.
as §1

TNF-α [5] = assay: serum TNF-α bioassay (cytotoxicity to WEH1 164 cells) after LPS challenge; type: in vivo, mice; conditions: LPS challenged animals (850 μg i.p.); IL-9 24 and 1 hour prior to challenge
Text: as §2, §1

[6] = test system: TNF-α, IL-12 p40, and IFN-γ; assay: serum levels of TNF-α, IL-12 p40 and IFN-γ after challenge (bioassay / immunoassay); type: in vivo, mice; conditions: IL-9 24 and 1 hour prior to challenge (P. aeruginosa or LPS); 2, 4 and 6 hours after challenge
Text: as §2, §1

IL-4 = assay: serum IL-4 by ELISA after challenge; type: in vivo, mice; conditions: IL-9 24 and 1 hour prior to challenge with bacteria or LPS; 2-24 hours after challenge
Description: (§3) In view of the observations of Giampetri, et al, supra, serum levels of the anti-inflammatory cytokines IL-4 and IL- 10 were measured in the sera of mice that had been challenged, either with the whole bacteria or with LPS, as described supra, and had received IL-9 24 and 1 hour prior to challenge, as described supra. Levels were measured via ELISAs, 2, 4, 6, 8, and 24 hours after challenge.

IL-10 [7] = assay: serum IL-10 by ELISA after P. aeruginosa challenge; type: in vivo, mice; conditions: 2 hours following Pseudomonas infection; IL-9 24 and 1 hour prior to challenge
Description: as §3

IL-10 [8] = assay: serum IL-10 by ELISA after LPS challenge; type: in vivo; conditions: LPS challenged mice; IL-9 24 and 1 hour prior to challenge
Description: as §3

IL-10 [9] = assay: PCR of IL-10 transcripts in spleen cells of challenged mice; type: in vivo; conditions: after infection, animals which had received IL-9; control mice hardly detectable
Description: The experiments described herein report analyses of expression of IL-10. Specifically, total RNA was isolated from spleen cells of challenged mice at different points in time (0.5, 1, 2, 4, and 8 hours). Isolation was carried out in accordance with Campanile, et al, Eur. J. Pharmacol. 307:191 (1996), and Houssiau, et al, J. Immunol. 154:2624 (1995), incorporated by reference. These references also describe the PCR protocols used for amplifying transcripts of β-actin (control), and IL-10. Commercially available primers were used to amplify β actin, and the 5′ and 3′ primers for IL-10 were, respectively: […]
The amplification product for β actin should be 540 base pairs in length, and that of IL-10, 256 base pairs. Products were analyzed via 1.5% agarose gel electrophoresis, and visualized by ethidium bromide staining.

Molecule: CC(=O)CCCCn1c(=O)c2c(ncn2C)n(C)c1=O [Pentoxifylline, reference compound]
- protection in experimental sepsis ([1]; phosphodiesterase inhibitor, literature statement): confers protection

B1: IL-4: IL-4 (3 μg/mouse), together with 30 μg of anti-IL-4 monoclonal antibodies; composition improving bioavailability of IL-4 (protein, UniProt P07750 21-140, looked up)
Interleukin-4: HIHGCDKNHLREIIGILNEVTGEGTPCTEMDVPNVLTATKNTTESELVCRASKVLRIFYLKHGKTPCLKKNSSVLMELQRLFRAFRCLDSSISCTMNESKSTSLKDFLESLKSIMQMDYS
modifications: complexed with anti-IL-4 antibody
- protection against fatal sepsis ([1]; IL-4 3 μg/mouse together with 30 μg anti-IL-4 monoclonal antibodies, i.p., before P. aeruginosa challenge): 100%

B2: IL-9: recombinant murine IL-9 produced in a baculovirus model in accordance with Druez, et al (protein, UniProt P15247 19-144, looked up)
Interleukin-9: QRCSTTWGIRDTNYLIENLKDDPPSKCSCSGNVTSCLCLSVPTDDCTTPCYREGLLQLTNATQKSRLLPVFHRVKRIVEVLKNITCPSFSCEKPCNQTMAGNTLSFLKSLLGTFQKTEMQRQKSRP
- survival rate ([2]; IL-9 i.p. prior to P. aeruginosa challenge, pooled independent experiments): about 80%
- cure rate ([2]; single 4 μg dose 24 hours before bacterial challenge, no second dose): 50%
- benefit (survival) ([2]; single treatment of 4 μg near the time of infection, and as much as 3 hours post challenge): marginal benefit
- outcome (survival) of LPS challenged mice [3]: death in the majority of the animals tested
- drop in TNF-α levels (TNF-α [4]): 10 fold
- drop in TNF-α levels (TNF-α [5]): better than a twofold drop
- expression of the cytokines (TNF-α, IL-12 p40, IFN-γ) in serum [6]: drastic reduction in all three cytokines
- effect on IL-4 production (serum level) (IL-4): did not appear to have any effect
- increase of IL-10 levels (serum) (IL-10 [7]): striking
- increase of IL-10 levels (serum) (IL-10 [8]): The same effect, albeit a lesser one
- IL-10 specific transcripts in spleen (IL-10 [9]): extensive expression
